# Experimental data taken from a protein production outcome set (Wang et al. 2014).
# Experiment: label from the status in PepcDB records
row,Sequence,protein production
1,MKDFFPLQQGGLVLEWVNTETKLRQLWAFRHRIFREQLQWVPLCEDGFDRDAYDDFSDNLVLCRDGEVVGAIRLTTGEHPFMLEEEFSRLLAPGERIGKGAEYSEITRLAVDREALGARESIMAARLLYLGAWLWSQVQGVRWMYFVVEPVFYRRLVMMGFPIVPVGIPRPLDGGVMSMTGLLDWRQAKTELIRSLTRGVSSPSACQALWHEYDYSH,failed
2,MKDFIRYTKKRNLSLNTIRTYESVLKHYEPVLDSWIKIRNKIINSNFKPRTIHLHKNVLLSFFEFKKLKRYLQNLKLLKLPQIEMKYFDVISKNNLYKKTDILDDDSLEIKKYKTIIRFLFETGIRAHELFFLESINNRLYVLGKGNKKRQIFFVKQTFEQLQKFYENLKGFETTKTLRLYIKKIIGKNFTPHSLRRSFATFMLIKGANPKTVMLQMGHANIQTTFSYLNLNEQTNRRIYNKIMYQNDAE,failed
3,MKDLKDSLKILYQFKTDYLKVTLLLTILQAFVIGPFIYYFFFFILRVIGVPGITDANLGEVFSSPVAVIMLLILALLILLFVYYELGFFIMMAIYQLRGESYTVFKIIQRLNVKAKYFLSYQAIYFLLYFFLLLPIAGLSLPITITENLYLPHFITDELMKTTTGTWLYVIAIAIIFYISARLVFALPYFIEDKSLKISGAIRKSWKFSQKHLFFMLLKWVLIIVVIGFLVSIIATIIMLPLLLVEKITPGIAVVIAGITLTILQVIGFFAAGIFQGIIAQLLVKNAFAIEGQHAPVARNQFPHKKRFIIVAIIVFIIFSGFNIFTVNATLYEPNTKIIAHRGDTMNAVENTVEAIESAAKSGADYSEIDIQETKDHQFVVFHDMTLRRLAGSSKRVADMTLKELQQTKVKSGDYSSHIASFDEIIKTAKKNKIDLLVEVKLHGGESSDMVERLVTLLKKEKVTDKYLVQSLNQPVIEEIEKADPSLKTGIILALNIGNLPKTSADFIVLEDFSINKRLLTQAKQNDKMVFVWTVNKEKLMQMYLRKNVDGIITNYPKKAIELRESFNENDSLRSRIENRLGF,failed
4,MKDLLKWKFVETLDFLFDMDKYGRQMLFLQERGRMKLMEGFAVEFRGDGWDNDLASYCGKIVECSWDKEKKVWVSLRIRVDKSKPNGIGTGRSVIKCIEDDLTKEVLLKEIKEIILLP,not failed
5,MKDLYQKFIYLIPSIIIFLITLSVTLKYSWPIGWDIFYHIHLSKVYMANGLTFFDPIYNAPGTIINYPPVFHLVILVLGYVLRMDLFDVARLMQPFLAALVALSVTVVASRLYEDKYVGIFAGLILFSGSIAMRLGSSLPENMALIFLPLSIFFFYEFFKDDKIIASFISGCLTGLVALIHPAATFCLVFAITFITAGLVITEFYFERDTGVIKRALKGYAILIGTAGLIASVWWLPAFYFKSLGHGGVATSLSVSRSLSILKYPDALGYFVLVLAVAGIIPAIRRFELRDRLILLWIISMFILSKSYYFGINVITYRVLIYIMIPLTILASSGLISVVEAIKNKNKDIARILLIALFIFAVFQAFNNLSSSKVADYGAMTAYGRINIAPPTDSEFELAKWFNSQNEDGKISLSNYFTGGFVMAYTNRPVDSLLYEKSEIPSRDELTEREISYLVFDKRLKASGDFKFNASSSFLFYNPNRINISDLEYPYLQKIYENQDFVVYRVL,failed
6,MKDTLKIGLLGLGTVGTGVLTLLKEHQEKISQVTGMNVVIEKAFVRNLETKQAQAEEYGLSLTTSIDDILEDKEIQIVVELMGTIEPAKTYIMKALEKGKHIVTANKDLLAQHGSELVALAQKHHCDLYYEASVAGGIPILRTIANSLAADNIQQVLGIVNGTTNYMLTQMVSADKSYEEALAEAQALGFAEADPTNDVDGIDAAYKMVILSQFAFGMNVSLPQVDIRGIRGLSLDDVAMAKQLGYEIKLIGSAEQNENSISVEVAPMLVNQKHPIASVRNEYNAVFIKSAGVGESMYYGPGAGAKPTATSVVSDLITIAKNIRLATTGHMFNSYQHKTQLTSSENVFGQYYFSLDVPDTPGQFLQLTQLMTKAEVSFDQLVQQKSDGQRARIVAITHQISKAQMQQVVIAIQNTEAFQLLNVMKVIGDE,failed
7,MKEARKRMVKRAVQEIKDGMNVNLGIGMPTLVANEIPDGVHVMLQSENGLLGIGPYPLEGTEDADLINAGKETITEVTGASYFDSAESFAMIRGGHIDLAILGGMEVSEQGDLANWMIPGKMVKGMGGAMDLVNGAKRIVVIMEHVNKHGESKVKKTCSLPLTGQKVVHRLITDLAVFDFVNGRMTLTELQDGVTIEEVYEKTEADFAVSQSVLNS,not failed
8,MKEEAVRVIEEVLKQGRTAMVEYEAKQVLKAYGLPVPEEKLAKTLDEALEYAKEIGYPVVLKLMSPQILHKSDAKVVMLNIKNEEELKKKWEEIHENAKKYRPDAEILGVLVAPMLKPGREVIIGVTEDPQFGHAIMFGLGGIFVEILKDVTFRLVPITEKDARKMIQEIKAYPILAGARGEEPADIDAIVDMLLKVSKLVDDLKDYIKEMDLNPVFVYNKGEGAVIVDSRIILKPKD,not failed
9,MKEGTGMVVRSSEITPERISNMRGGKGEVEMAHLLSKEAMHNKARLFARMKLPPGSSVGLHKHEGEFEIYYILLGEGVFHDNGKDVPIKAGDVCFTDSGESHSIENTGNTDLEFLAVIILL,not failed
10,MKEIVERVKTKTKIPVYERSVENVLSAVLASDDIWRIVDLSEEPLPLVVAILESLNELGYVTFEDGVKLTEKGEELVAEYGIGKRYDFTCPHCQGKTVDLQAFADLLEQFREIVKDRPEPLHEFDQAYVTPETTVARVILMHTRGDLENKDIFVLGDDDLTSIALMLSGLPKRIAVLDIDERLTKFIEKAANEIGYEDIEIFTFDLRKPLPDYALHKFDTFITDPPETLEAIRAFVGRGIATLKGPRCAGYFGITRRESSLDKWREIQKLLLNEFNVVITDIIRNFNEYVNWGYAEETRAWKLIPIKKLPEYNWYKSYMFRIETLEGSRGYEDEIPEEDIYNDEESST,not failed
11,MKEKEYLFSLDMKVRDYECDLQGVVNNSNYQRYMEHTRHEFWESLGDNFGQMHEKGLDAFVYKVTITFKQSLRSGDRFRSCLTCHKKGPKLIFMQDIIREDGVMAARGEVEVVAVQDGVLTRGEYFDVLMKDILSKTTKLEHHHHHH,not failed
12,MKELNIALLGLGTVGSGVVKIIEENRQQIKDTINKDIVIKHILVRDKSKKRPLNISQYHLTEDINDILNDNSIDIVVEVMGGIEPTVDWLRTALKNKKHVITANKDLLAIHLKLLEDLAEENGVALKFEASVAGGIPIVNAINNGLNANNISKFMGIFNGTSNFILSKMTHEQTTFKDALEEAQRLGFAEADPTDDVEGVDAARKVVITSYLSFNQVIKLNDVKSVGISDITLADINAANSLNYKIKLIGKGTYENGYVNASVEPTLIHKNHQLAAVENEYNAIYVIGDAVGDTMFYGKGAGSLATGSAVVSDLLNVALFFESNLHTLPPHFELKTEETKEMMDGAEPVVIQEKSNYYIVISNNNKSLEKVEYDIKKKLPFHKSLQLVERDQDTYAIIVTGIETSPEKVLNQSGFNIKKVYPVEGV,failed
13,MKELPRGDLLSPKTEEKFKLTNKAKIFFRPYMDPPEMPSSEYPLWLCTGRVLEHWHSGTMTMRVPELYRAVPEALCYMHPEDAKKLGVKQNEAVWVESRRGKVKARLEHHHHHH,not failed
14,MKELSLFLQNRSVRRVGVFILIAFVLYLLRSQMNIILLTFIFSYLITRLENFILRRISIYRQIIVLLLYVLIAAVIIFVFVKYIPVLADQINQLVKFGNTFLTTDSNNDFINYIVSLANQFDIMKYTEQGVSMILTYLTNVGTVLMNVFIALMLSLFFSLGKEHLVSFTNQFSTSKIGFIYEEVKFFGSKFVATFGKVIEAQFIIALVNAILTTIALWILGFPQLMTLSIMVFLLGLIPVAGVIISLVPLTIIGYSIGGVEYIFYILVVVIIIHALESYVLNPKLMSAKTNLPVFYTFIILIFGEHFFGIWGLIVGIPVVMFFLDVLGVTNQEEIEQPKDTISHT,failed
15,MKENLQDRLERENLKIASFGKRVLAFLIDDMVISLIVFIIFYDRLIQAKDLFETTQIVGNFYLGFILLHFSYQAIFTYLYGASLGKILCKIIILDENLLDKPNLIQSCIRSAVRQVSAMAFMLGFAWALSNDLRKAWEDYLARTIVVDVA,failed
16,MKEQILEKLKTVKYPGFEKDIVSFNFVKDIKIQDDGVFIDIEIVSANPEVANEIRKNTIEALSSLALKNIELNIITPKIPEEKSNSRSGKNIAPQVKNFIMVSSGKGGVGKSTTTVNLAISMAKMGKRVGILDADIYGPNIPRMLGETKTQPEVVGQRLKPILTHGVYMMSMGVLIEEGQGLMWRGAMIMKAIEQLLADVIWPELDVLFLDMPPGTGDAQITSAQSIPIAAGVCVSTPQTVSLDDSKRALDMFNKLHIPIAGVIENMSGFLCPDNGKEYDIFGKGTAEDMAKAYKSEVLAQIPIEMIVREGGDEGKPVSFYHPESVSSKRYLMAAEKIWSFIEKINNEGGADNSAIQPVMNGKSACSHLEHHHHHH,not failed
17,MKETHNSQDRLAYLKQQLPADITRSVIDTLKEDLGGTLDPAADITASLIPADRISTATIITREAGVFCGQLWADEVFKQLGGQVSIEWHVQDGDTLTPNQTLCTLTGPARILLTGERNAMNFIQTLSGCATATARYVQELKGTQCRLLDTRKTIPGLRSALKYAVACGGGYNHRIGVFDAYLIKENHIIACGGIRQAISTAKQLNPGKPVEVETETLAELEEAISAGADIIMLDNFSLEMMREAVKINAGRAALENSGNITLDNLKECAETGVDYISVGALTKHLKALDLSMRFKS,not failed
18,MKETYYFAYGSNMNLDQMAYRCPAASVVEPVHLEGYRLTFCGRGKGSGVATILPEEGSRVEGVLWKITPECEKSLDFYEGYPHLYGKEPVLVQGKDGMKREVMAYTMNAPYKDQPAIPSDLYFMGIVEGCHQNGISSRSVTDALKRVREEVGRQKPSQKKTEVSR,failed
19,MKFDNKAPIYIQIMDKIKIDIINGTLKPGDKLPSVREMAVKFKVNPNTLQRVYQELERENITYTQRGTGSFVREDSDMIINLKKEMASEVIENFIENIKEFGFGNKDILKIVEDKLNEEEK,not failed
20,MKFDVIIIGSGLAGLTAGIRLAEAGKSCAIISNGQSALHFSSGSLDLLTHLPDGTPVSHPKQALSTLAQQAPEHPYSRIGEANVTQLIEQAQTLLSTTRNLDYKGNGDENHYRITPVGRSRMSWMSPQRVPTYSVNQPFPWKKIAVVGIEGFLDFQPQFASSTLNEQGIEAIPYHIHLPLLDRLRDNPSEFRAINIARYLDKPENTQALAEELIKHIDNSVEAIVLPACIGLDEEAPVNLLQECVGKPICLLPTLPPSLLGIRLHQALKLRFQQAGGLIMPGDRAEEADLVGNKVVGIHTRNHTDIPIRSEHVVLATGSFFNNGLIAEFDRIYEPLMELDLLESLPRNEWTQVNVFAKQPYMRFGVNTDSQLRPLKYGEALDNVYAVGALLGGFDPLNEGCGAGVSMISALYAAQQILQSDKSQHTTSAAVEAVL,not failed
21,MKFEAIAVEKIPLIHEGDNLPSIICEKIGLQDRDIMIIASTIVAKAEGEIFRLEDITPGEEALEIAARTGKDPRFIQAVLSKSREVFVETPFMLVTTLAGHTCVNAGIDESNIENGFLLYPPENPDASALKIGKELEKLSGKKLSIIITDTNGRAFKIGQTGVAIGIYNIKPVKRWIGEKDLFGKVLEITEQAIADELAGAANLLMGEGAGGIPVVIIRGLDYYCEGDTSIKESYRPENMDVIKQGLRCLRNKK,failed
22,MKFEGIYTPAITPLSADGSIDTQAFAEVLEFLVESKVHGIVIGGSTGEYYAHTAEERLALAAHASEVIAGRLPLVVGTGAIRTEDSLAYAEAARAIGADAILVGSPPYALPTSREIAEHVLAVDRAAGLPIMLYNYPARMGVEMDEAFFAAVAGCRNIVAIKESSGSTAQLHRLACRHPRIALSCGWDDQALEFFAWGARSWVCAGSNFIPGEHLALYQACVVENDFAKGRRIMAAMMPLMDFLESGHFVQSIKHGCELAGLRAGGVRAPLKALDEAGKAALAEIVARLKGEVAR,failed
